# Results reported in the supplement of paper PMC12042874.
# ± gives the uncertainty stated by the source.
# Test: amyloid nucleation score (Sup35N fusion, yeast selection) (log enrichment); library NNK1; higher = more nucleation; inactive = no reads after selection
# How it was run: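 Yeast lacking psi expressed peptides of 20 random codons fused to Sup35N, received 100 μM copper sulfate for 24 hours, and were then grown for 7 days at 30°C on medium lacking adenine and uracil. Illumina sequencing of input and output plasmid inserts provided the reads. Nucleation scores are DiMSum log enrichments of output over input, centred on the mode of non-aggregating sequences. Any sequence with under 100 input reads was excluded.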
row,Substance,amyloid nucleation score
1,RMAPMMDP,-0.227 ± 1.1
2,RMTWQM,-0.885 ± 2.1
3,RMYLGVLIRHWIDSFAFGMQ,0.193 ± 0.32
4,RMYYAFVCGGEDMESEFPCY,-0.037 ± 1.4
5,RNFFDLCGTSKRRMRIS,-0.15 ± 0.47
6,RNFPTRCMCIQNYAKL,2.22 ± 0.17
7,RNIVIMYRNCLVKLNLETGS,6.77 ± 0.053
8,RNLEVIYNSI,0.229 ± 0.52
9,RNLTDQL,2.99 ± 0.2
10,RNNEDGRLKDRRRGLSHGPC,-0.763 ± 0.36
11,RNSIVGCGYDVGTHVSDLGP,-0.035 ± 0.41
12,RNVGFLFSKRDQPWLKSPGD,-0.983 ± 2.4
13,RNYLIDV,-0.668 ± 0.4
14,RPCIWFGTTCFYCTVFN,5.76 ± 0.061
15,RPLVGTGIYSVVRSLFRLCV,-1.16 ± 0.59
16,RPWAWPRCRSCAST,0.689 ± 0.37
17,RQARFSFDLRFP,0.567 ± 0.35
18,RQDAVNNNTCNSISFNP,0.048 ± 0.52
19,RQGSDGVSSRKLWFFVRIAI,-0.383 ± 1.7
20,RQSLRRSYHHRWKRDVMR,inactive
21,RQTGVYCKFNRSRDSILLSH,-0.782 ± 0.86
22,RRGSNDDSYHRRQVDRKPMA,0.166 ± 0.66

row,Substance,amyloid nucleation score
1,RRLNCLILFKVVLLATIFCI,-1.42 ± 0.58
2,RRLTILSTSPWCTPLELNSF,-0.282 ± 0.37
3,RRNHNSRVVINVLMHVRCSI,1.95 ± 0.1
4,RRNVWASVTGGELWKGDLSR,-0.498 ± 1.1
5,RRSGTLDGSGSGSCVRLPPN,-0.172 ± 0.5
6,RSARIKNWSSLYLWMINSCV,0.469 ± 0.32
7,RSCGMTVGACSYVACVSYCT,6.02 ± 0.066
8,RSCGQFLSWSACPFVSLRRR,0.274 ± 0.46
9,RSCMRPFIGIMSSSPQIDKA,-0.53 ± 0.77
10,RSETGMYSAHACLL,-0.314 ± 1.7
11,RSEVYFNWGLNASMEVSPLC,-0.02 ± 0.41
12,RSFLMPDE,0.307 ± 0.46
13,RSHGNGSGSRTVAF,-0.1 ± 0.49
14,RSIFVP,inactive
15,RSIRC,-0.615 ± 1.1
16,RSISSVLVSIFTKMG,0.232 ± 0.35
17,RSLFFV,-0.867 ± 0.86
18,RSMDRTGSIAGRYCVKKMSS,0.423 ± 0.3
19,RSNCDFLSNNYGFLFGFLSQ,0.525 ± 0.44
20,RSPFWRDVKNKITVSPIFAN,0.945 ± 0.61
21,RSPRGSVFHMFI,0.176 ± 1.6
22,RSRVSIRSHSDRRGRVKRVV,1.15 ± 0.65

row,Substance,amyloid nucleation score
1,RSSGVSVGYFRAFS,inactive
2,RSSLVLTFELFRFGMYHQEM,1.28 ± 0.15
3,RSVCIVF,0.105 ± 0.43
4,RTCHSQICFSGRMYRLFVMI,0.41 ± 0.48
5,RTFHYAVNINRWLNKECGLH,-0.702 ± 1.7
6,RTGITNTKPTQWSYNQSLSS,-0.291 ± 0.52
7,RTGSAASG,-0.564 ± 0.38
8,RTGVIWYY,-0.677 ± 1
9,RTHEFQTLMEAFRSNTAVSA,-0.031 ± 0.22
10,RTIHAIERDDCLRGNSGKNN,1.12 ± 0.57
11,RTLHRLLSSINAKGDRYRLR,-0.935 ± 1.9
12,RTRAGKYMYVSSQPTCSILI,0.312 ± 0.56
13,RTSTQFPSHQYIQVVLCIS,inactive
14,RVCVFIN,inactive
15,RVCVLFSCWRTMYMIWNSRE,5.71 ± 0.061
16,RVDGHTVR,2.4 ± 0.14
17,RVDPLV,inactive
18,RVDQVKSGFDMLYYPHWHQL,0.532 ± 0.37
19,RVDRMKNIFVRYRTVRVHGG,9.304 ± 0.045
20,RVEVSGVLALANPLVPF,0.92 ± 0.6
21,RVFKFSPYILKAILEVSNA,0.458 ± 0.32
22,RVGDYGKHRW,1.31 ± 0.14

row,Substance,amyloid nucleation score
1,RVGYH,-0.135 ± 0.35
2,RVIGPTHYLQLCNIMFCDYI,7.206 ± 0.051
3,RVISPSCKWDQCSPMCS,-0.499 ± 1.1
4,RVLANCLCFKYNETRRGCTL,0.218 ± 0.95
5,RVLIRYQV,0.345 ± 0.58
6,RVLNMFYVMNCAIFWVVEAC,2.49 ± 0.18
7,RVLSSTNHSAYHWIEKGSTF,1.01 ± 0.31
8,RVMVFGRHNEDVSKFSISGK,4 ± 0.1
9,RVRAVCVLFRTNAAFPAGTH,-1.03 ± 0.74
10,RVRTPHNWTWGITCTWVFKF,0.326 ± 0.51
11,RVTSNEKRNYRVSRICPHLT,-0.271 ± 1
12,RVWCLRTLKCLIAAR,0.189 ± 0.45
13,RVYYSRYYVFDHSYFDTRRG,-1.07 ± 1.3
14,RWCGKPRICFSISEAVDKLH,-0.2 ± 0.21
15,RWEFGLRHGKSVKWSIPSLY,-0.085 ± 0.95
16,RWGAYVYGQSVSINGIRIVL,6.665 ± 0.045
17,RWLHVIKL,2.21 ± 0.35
18,RWSILTIVSMGP,0.196 ± 1.2
19,RWSPV,1.47 ± 0.54
20,RWTVLRIWIYEVQKIAARRS,0.098 ± 0.44
